Results on seven substances are retold here after US6955900B1, “Methods for producing polypeptide binding sites, monoclonal antibodies and compositions thereof” (The Scripps Research Institute, priority 1993, dated 2005).

Where two headings read alike, the source gives them in different places. Bridge positions count the residues as written; N and C are the ends. Ends that are not written are not given here.

The target of test [1] is T1, αvβ3 (Homo sapiens, UniProt P05106+P06756).
T1 construct: human placentas were obtained, cut into small pieces and extracted; from tissue
T1 sequence (P06756 31-889 limits assumed): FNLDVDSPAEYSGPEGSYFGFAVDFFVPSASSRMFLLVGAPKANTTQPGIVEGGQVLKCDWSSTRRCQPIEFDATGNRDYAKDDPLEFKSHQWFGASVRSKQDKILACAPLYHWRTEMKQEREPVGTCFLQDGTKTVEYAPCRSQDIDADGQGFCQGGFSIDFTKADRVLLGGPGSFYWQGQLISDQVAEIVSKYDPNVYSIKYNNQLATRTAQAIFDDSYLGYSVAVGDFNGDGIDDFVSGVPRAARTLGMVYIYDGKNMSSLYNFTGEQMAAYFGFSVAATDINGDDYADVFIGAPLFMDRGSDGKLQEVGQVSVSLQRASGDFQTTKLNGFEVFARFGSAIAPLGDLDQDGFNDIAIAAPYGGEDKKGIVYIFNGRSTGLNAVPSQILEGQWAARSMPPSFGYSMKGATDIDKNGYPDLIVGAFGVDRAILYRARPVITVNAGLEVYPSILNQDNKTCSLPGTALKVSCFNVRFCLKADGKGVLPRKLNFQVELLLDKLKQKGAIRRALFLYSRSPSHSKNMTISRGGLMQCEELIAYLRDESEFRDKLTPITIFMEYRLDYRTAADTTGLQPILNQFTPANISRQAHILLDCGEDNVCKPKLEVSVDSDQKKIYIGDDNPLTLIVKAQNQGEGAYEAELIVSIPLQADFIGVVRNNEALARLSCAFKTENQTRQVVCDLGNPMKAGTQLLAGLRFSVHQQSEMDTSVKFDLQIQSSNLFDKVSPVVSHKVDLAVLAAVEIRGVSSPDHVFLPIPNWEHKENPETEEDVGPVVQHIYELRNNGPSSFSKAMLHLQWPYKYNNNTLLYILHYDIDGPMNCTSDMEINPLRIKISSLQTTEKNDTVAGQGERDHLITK
T1 sequence (P06756 891-1048 partner limits assumed): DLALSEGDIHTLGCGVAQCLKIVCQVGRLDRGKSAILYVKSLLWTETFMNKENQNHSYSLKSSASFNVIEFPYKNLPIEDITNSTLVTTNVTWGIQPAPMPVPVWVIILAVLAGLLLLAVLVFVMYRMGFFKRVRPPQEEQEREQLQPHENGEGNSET
T1 sequence (P05106 27-788): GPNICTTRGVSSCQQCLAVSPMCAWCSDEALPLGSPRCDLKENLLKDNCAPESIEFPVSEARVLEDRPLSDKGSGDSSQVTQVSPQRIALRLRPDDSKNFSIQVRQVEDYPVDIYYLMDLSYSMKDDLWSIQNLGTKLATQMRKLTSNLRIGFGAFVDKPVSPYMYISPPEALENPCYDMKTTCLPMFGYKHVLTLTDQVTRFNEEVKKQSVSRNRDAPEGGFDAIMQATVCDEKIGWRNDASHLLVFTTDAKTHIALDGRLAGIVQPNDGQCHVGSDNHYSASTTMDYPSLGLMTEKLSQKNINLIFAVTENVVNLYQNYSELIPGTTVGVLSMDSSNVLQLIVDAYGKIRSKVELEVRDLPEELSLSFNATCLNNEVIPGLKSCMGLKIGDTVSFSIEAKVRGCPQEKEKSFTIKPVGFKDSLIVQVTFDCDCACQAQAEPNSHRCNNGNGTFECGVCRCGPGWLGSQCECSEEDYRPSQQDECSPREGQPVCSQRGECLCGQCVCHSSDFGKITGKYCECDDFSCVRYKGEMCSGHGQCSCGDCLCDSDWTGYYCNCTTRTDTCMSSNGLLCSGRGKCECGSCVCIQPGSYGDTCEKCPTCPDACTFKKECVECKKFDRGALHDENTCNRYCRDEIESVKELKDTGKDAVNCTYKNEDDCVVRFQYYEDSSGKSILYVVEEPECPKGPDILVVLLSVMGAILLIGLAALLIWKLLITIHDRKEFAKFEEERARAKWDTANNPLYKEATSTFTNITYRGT
Kind of test: purified ligand-receptor binding assay, inhibition of 125I-vitronectin binding to αvβ3. The conditions noted are these: for blocking of vitronectin (ligand) binding to αvβ3: result in words. The method, then:
(§1) The method for these binding studies has been described by Barbas et al., Proc. Natl. Acad. Sci., USA, 90:10003-10007 (1993) and Smith et al., J. Biol. Chem., 265:11008-11013 (1990), the disclosures of which are hereby incorporated by reference.
(§2) Briefly, selected purified integrins were separately immobilized in Titertek microtiter wells at a coating concentration of 50 ng per well. After incubation for 18 hr at 4° C., non-specific binding sites on the plate were blocked with 10 mg/ml of bovine serum albumin in Tris-buffered saline. For inhibition studies, a range of antibody was tested for the ability to block the binding of ^125I-vitronectin to αvβ3 and ^125I-fibrinogen to αIIbβ3. The choice to use two different ligands in comparing the inhibitory activity of antibodies was a compromise based on a complicated series of circumstances. […] In contrast, Ca^2+ is essential for the rapid binding of fibrinogen to αIIbβ3. […] Therefore, the optimal ligand was selected for each integrin. This corresponds to vitronectin for αvβ3 and fibrinogen for αIIbβ3. Radiolabeled ligands were used at concentrations of 1 nM and binding was challenged with unlabeled antibody.
(§3) Following a three hour incubation free ligand was removed by washing and bound ligand was detected by gamma counting. The data from this analysis were highly reproducible with the error between data points typically below 11%. Data are expressed as the average of triplicate data points. All experiments were repeated at least four times.

Test [2] concerns the target T2, αvβ5 (Homo sapiens, UniProt P06756+P18084).
T2 construct: human placentas were obtained, cut into small pieces and extracted; from tissue
As to the kind of experiment: purified ligand-receptor binding assay, inhibition of 125I-vitronectin binding to αvβ5. The conditions noted are these: result in words. As for the experimental part: To determine if the CDR was an appropriate vehicle for displaying and identifying inhibitory peptide motifs, the ability of synthetic peptides derived from the sequence of Fab 9 to block ligand binding to αvβ3, αvβ5 and αIIbβ3 was measured. One peptide synthesized as described below for use in this assay contained a RGD motif positioned on the apex of the CDR3 loop but lacked the remaining flanking regions of the CDR3 and rest of the heavy chain. The sequence of the peptide is listed in SEQ ID NO 12. A peptide having the same sequence but flanked by glycine residues to prevent cyclization was also prepared and has the amino acid residue sequence in SEQ ID NO 68. A longer peptide, having the amino acid residue sequence in SEQ ID NO 4 containing all of the amino acids in SEQ ID NO 12 along with flanking amino acid residues, was also prepared. These assays were performed in order to assess the ability of this particular peptide to inhibit the binding of a high affinity ligand to a receptor, namely the binding of vitronectin to αv/β3 or αv/β5 and fibrinogen to gpIIb/IIIa.
The synthetic peptides from Fab 9 were tested for the ability to antagonize αvβ3 and αIIbβ3 and αvβ5 in purified ligand-receptor binding assays performed as described in Example 5b. […]

Test [3] concerns the target T3, αIIbβ3 (Homo sapiens, UniProt P05106+P08514). As to the kind of experiment: purified ligand-receptor binding assay, inhibition of 125I-fibrinogen binding to αIIbβ3. Details: from tissue; the procedure itself is in U.S. Pat. No. 5,114,842. The conditions noted are these: for blocking of fibrinogen (ligand) binding to gpIIb/IIIa (αIIbβ3): result in words. The method, then:
as §1, §2, §3

The target in test [4] is T1, αvβ3. Kind of test: ELISA on αv/β3-coated wells. The conditions noted are these: result in words, compared to BSA background. The class given is binding. The method, then:
(§4) Preliminary ELISA assays were performed to first characterize the binding specificity of the panned phage monoclonal antibodies prepared above toward related integrins. For ELISA, 1 ug/well of the purified VNRs prepared in Example 3A was separately admixed to individual wells of a microtiter plate and maintained at 4 C overnight to allow the protein solution to adhere to the walls of the well. After the maintenance period, the wells were washed once with PBS and thereafter maintained with a solution of 3% BSA to block nonspecific sites on the wells. The plates were maintained at 37 C for 1 hour after which time the plates were inverted and shaked to remove the BSA solution. Soluble Fab heterodimers expressing the synthetic binding site proteins-prepared in Example 3B were then admixed separately to each well and maintained at 37 C for 1 hour to form a immunoreaction products. Following the maintenance period, the wells were washed 10 times with PBS to remove unbound soluble antibody and then maintained with a secondary goat anti-human FAB conjugated to alkaline phosphatase diluted in PBS containing 1% BSA. The wells were maintained at 37 C for 1 hour after which the wells were washed 10 times with PBS followed by development with p-nitrophenyl phosphate.

Test [5] addresses T2, αvβ5. Kind of test: ELISA on αv/β5-coated wells. The class given is binding. The conditions noted are these: result in words, compared to BSA background. The method, then:
as §4

In test [6] the target is T4, gpIIb/IIIa (Homo sapiens, UniProt P05106+P08514).
T4 construct: from tissue; the procedure itself is in U.S. Pat. No. 5,114,842
As to the kind of experiment: ELISA on gpIIb/IIIa-coated surfaces. The conditions noted are these: result in words. The format is binding.

Test [7] concerns platelets. As to the kind of experiment: platelet aggregation assay. The class given is cell-based, human. As for the experimental part: Platelet aggregation assays were performed as described in U.S. Pat. No. 5,114,842. […] When the concentration of the RGDC2-binding site Fab was decreased by half, the amount of platelet aggregation increased similarly and thus the amount of light transmitted increased. […] All of the initial selection and characterization of the semi-synthetic Fab antibodies of this invention relied largely upon the use of purified integrins. Since the MTF-antibodies blocked the function of αIIbβ3 and have potential therapeutic use in the prevention of thrombosis, the ability of recombinant Fabs to block platelet aggregation was measured as described in Example 4. Washed platelets (1×10^8) were placed in Tyrode's buffer containing 2 mM Ca^2+ and 100 ug/ml of fibrinogen and aggregation was stimulated by addition of 20 uM ADP. Aggregation was measured as light transmission through the platelet suspension using a Scienceo aggregometer.

The target in test [8] is T4, gpIIb/IIIa. Kind of test: gpIIb/IIIa sandwich ELISA on fibrinogen-coated plates. The class given is binding. As for the experimental part: A gpIIb/IIIa sandwich ELISA assay was performed on 10 ug/ml (100 ul) of fibrinogen-coated plates. After blocking the plate as described above, the RGD-expressing, Fab, Mab 19, was admixed with purified gpIIb/IIIa receptor. After allowing the RGD-expressing Fab and receptor admixture to immunoreact with the fibrinogen, the wells were washed and the amount of bound gpIIb/IIIa was determined using an anti-IIIa antibody.

Test [9] concerns the target T3, αIIbβ3. The conditions noted are these: solid-phase radioligand binding assays, recently reported; cited from earlier work.
Test [10] has as its target T3, αIIbβ3. As to the kind of experiment: surface plasmon resonance (BIAcore), Fab binding to immobilized αIIbβ3. Details: from tissue; the procedure itself is in U.S. Pat. No. 5,114,842. The conditions noted are these: using SPR. The method, then: A comparison of absolute antibody affinities was then performed with surface plasmon resonance, which is a highly accurate means of assessing ligand affinities in real time. See, Altshuh et al., Biochem., 31:6298-6304 (1992); Chaiken et al., Anal. Biochem., 201:197-210 (1992); Eddowes, Biosensors, 3:1-15 (1987); Fagerstam et al., J. Chromatoar., 597:397-410 (1992); Johnsson et al., Anal. Biochem., 198:268-277 (1991); Karlsson et al., J. Immunol. Methods, 145:229-240 (1991); and VanCott et al., J. Immunol. Methods, 146:163-176 (1992), the disclosures of which are hereby incorporated by reference. SPR is a phenomena that occurs when incoming photons interact with electrons in a biosensor chip. […]
The association and dissociation rate constants (k1 and k−1) for semi-synthetic antibodies were obtained from BIAcore measurements as follows. […] At the end of the association phase the flow was changed to buffer without ligand and the change in response unit (RU) was measured as a function of time. […]
To obtain the association rate constant k1, an antibody was passed through the sensor chip containing unoccupied integrin and the response unit as a result of binding is again measured as a function of time. The association rate constant, k1, is calculated as shown in equation 2. k1=[((dRU/dt)/RU)−k−1]/L Equation 2 L is the concentration of ligand. […]

The mark [11] stands for this setting: listed as Fab 9-derived peptide in SEQ ID NO 68.

T2 sequence (P06756 31-889 limits assumed): as the sequence (P06756 31-889 limits assumed) above
T2 sequence (P06756 891-1048 partner limits assumed): as the sequence (P06756 891-1048 partner limits assumed) above
T2 sequence (P18084 24-799): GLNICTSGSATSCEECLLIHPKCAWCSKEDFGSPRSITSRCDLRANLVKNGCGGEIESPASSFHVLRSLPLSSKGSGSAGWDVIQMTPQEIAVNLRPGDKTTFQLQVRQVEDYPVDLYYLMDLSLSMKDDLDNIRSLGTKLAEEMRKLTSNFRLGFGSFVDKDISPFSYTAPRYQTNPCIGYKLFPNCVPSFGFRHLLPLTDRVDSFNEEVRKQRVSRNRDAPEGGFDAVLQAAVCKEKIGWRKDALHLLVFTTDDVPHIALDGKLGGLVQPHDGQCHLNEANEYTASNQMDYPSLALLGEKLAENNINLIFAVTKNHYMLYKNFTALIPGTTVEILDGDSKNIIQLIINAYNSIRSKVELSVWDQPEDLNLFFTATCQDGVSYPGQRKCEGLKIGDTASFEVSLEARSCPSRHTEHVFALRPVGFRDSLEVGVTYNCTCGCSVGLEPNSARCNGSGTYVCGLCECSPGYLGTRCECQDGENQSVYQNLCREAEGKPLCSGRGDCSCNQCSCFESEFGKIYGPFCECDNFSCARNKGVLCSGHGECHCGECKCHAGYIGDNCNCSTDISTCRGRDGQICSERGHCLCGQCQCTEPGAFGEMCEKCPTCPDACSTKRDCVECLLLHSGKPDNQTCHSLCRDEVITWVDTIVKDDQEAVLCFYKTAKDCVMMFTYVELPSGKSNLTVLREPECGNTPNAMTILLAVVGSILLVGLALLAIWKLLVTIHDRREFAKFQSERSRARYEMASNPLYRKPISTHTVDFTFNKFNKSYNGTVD

Consider GSFGRGDIRNG [Lin-9], for which the “peptide concentration reaching maximal inhibition of binding to αv/β3” value in test [1] was 10^−5 M. Further, the “blocking of vitronectin (ligand) binding to αvβ3” value (shortened to “blocking of vitronectin … to αvβ3”) in test [1] is recorded as “inhibited”; in test [1] (setting [11]), “completely inhibited”. For the same substance, the “blocking of vitronectin binding to αvβ5” value in [2] is reported as “did not antagonize”; in test [2] (setting [11]), “No inhibition”. Further, in [3], the “peptide concentration reaching maximal inhibition of binding to gpIIb/IIIa” value is 10^−5 M. Also, the “blocking of fibrinogen (ligand) binding to gpIIb/IIIa (αIIbβ3)” value (“blocking … to gpIIb/IIIa (αIIbβ3)” for short) in test [3] is listed as “inhibited”; in [3] (setting [11]) it was “completely inhibited”.

For “peptides derived from HCDR3 of MTF-32: circular CSFGRTDQRNC (SEQ ID NO 71), linear GCSFGRTDQRNCY (SEQ ID NO 72) [peptide 32]”, the “blocking of vitronectin … to αvβ3” value in test [1] was “did not interfere”. Besides, the “blocking … to gpIIb/IIIa (αIIbβ3)” value in test [3] is given as “blocked”.

Take “Mab 19: Fab-displayed RGDC2 binding site VGCGRLRGDDPWCYYMDV (SEQ ID NO 3) (Fab-displayed binding site)”: the “binding to αv/β3 (ELISA, immunoreaction)” value in [4] is “not cross-react”. Besides, the “binding to αv/β5 (ELISA, immunoreaction)” value in [5] is given as “not cross-react”. In [6], the “binding to gpIIb/IIIa (ELISA, immunoreaction)” value is reported as “specific for gpIIb/IIIa”. Moreover, the “inhibition of platelet aggregation” value in test [7] (6.6 uM purified soluble Fab, light transmission) is given as “inhibited the aggregation of platelets in a time-dependent manner”. Besides, in test [7] (simultaneously performed assays), the “inhibition of platelet aggregation compared with murine Fab LIBS-1” value is “equally effective”. For the same substance, in test [8], the “Fab concentration of maximal inhibition of gpIIb/IIIa binding to fibrinogen” value came out at 5 µM. In test [8] (result in words), the “blocking of gpIIb/IIIa binding to fibrinogen” value is “blocked the binding of gpIIb/IIIa to fibrinogen in a dose-dependent manner”.

Turning to “fibrinogen: natural high affinity ligand of αIIbβ3”, the entries for the “association rate constant for binding to αIIbβ3” value in [9] and in [10] were 850000 M⁻¹ s⁻¹ and 600000 M⁻¹ s⁻¹, respectively.

As to “peptides derived from HCDR3 of MTF-40: circular CSFGRNDSRNC (SEQ ID NO 69), linear GCSFGRNDSRNCY (SEQ ID NO 70) [peptide 40]”, in test [1], the “blocking of vitronectin … to αvβ3” value is recorded as “did not interfere”. The “blocking … to gpIIb/IIIa (αIIbβ3)” value in [3] is listed as “blocked”.

Consider “Mab 8: Fab-displayed RGDC2 binding site VGCPIPRGDWRECYYMDV (SEQ ID NO 8) (Fab-displayed binding site)”, for which the “binding to αv/β3 (ELISA, immunoreaction)” value in test [4] was “bound specifically”. Further, the “binding to αv/β5 (ELISA, immunoreaction)” value in [5] was “not to αv/β5”.

In the case of “CSFGRGDIRNC (CSFGRGDIRNC-NH2; disulfide 1-11 (inferred); not fully specified) [circularized Fab 9-derived peptide]”, in [1] (listed as VnRB3-5-derived peptide), the “blocking of vitronectin … to αvβ3” value is “inhibits”.
